Source: patent CN1737011A (SHANGHAI MEI EN BIO TECH CO LT, dated 2006)

Molecular target: HLA-DR10抗原 (on live Raji cells, Burkitt's lymphoma, ATCC CCL-86) (human)
Assay: radioimmunoassay with 131I-labelled antibody (5-110 ng/ml) on 10^6 live Raji cells, Scatchard plot, Ka = -(slope/n), n = 2

Ka: 3.36e+08 M⁻¹
B1: 抗HLA-DR10的特异性嵌合单克隆抗体 (131I标记, 131I-HLA-DR10) (antibody, V domains shown)
VH: QVQLKESGPGLVAPSQSLSITCTISGFSLTSYGVHWVRQPPGKGLEWLVVIWSDGSTTYNSALKSRLSISKDNSKSQVFLKMNSLQTDDTAIYYCASHYGSTLAFASWGHGTLVTVSA
VL: DIQMTQSPASLSASVGETVTIICRASVNIYSYLAWYQQKQGKSPQLLVYNAKILAEGVPSRFSGSGSGTQFSLKINSLQPEDFGSYYCQHHYGTFTFGSGTKLEIK
modifications: 131I label by the chloramine-T method; labelled residues not stated
notes: Mouse/human chimeric IgG1 kappa made in NS0-clym cells (CCTCC C200405); also called HLA-DR10单抗; chLym抗体; not shown: human immunoglobulin gamma-1 heavy chain constant region (from plasmid pSK-γ1); human immunoglobulin kappa light chain constant region (from plasmid pSK-κ)
